Target: N-terminally MBP-fused and C-terminally mCherry-fused C-terminal intracellular region of Lrp5 (zebrafish)
Experiment: bead binding assay read by EGFP fluorescence microscopy

In the case of “N-terminally GST-fused and C-terminally EGFP-fused RBP1a (natural protein)”, the EGFP signal on beads was 5.3.
